From patent US8299028B2, “Chimeric peptide antagonist for GPCR135 or GPCR142” (Janssen Pharmaceutica NV, priority 2007, dated 2012)

Experiments:
human GPCR135 [1] = biological target: T1, human GPCR135 (Homo sapiens, UniProt Q9NSD7); assay: Agonist assay, inhibition of forskolin-induced β-gal expression in SK-N-MC/CRE-β-gal cells; format: cell-based; parameters: expressed in transfected cells; conditions: human GPCR135 agonist response, mean ± SEM; NA = no agonist activity observed
T1 sequence (Q9NSD7 1-469): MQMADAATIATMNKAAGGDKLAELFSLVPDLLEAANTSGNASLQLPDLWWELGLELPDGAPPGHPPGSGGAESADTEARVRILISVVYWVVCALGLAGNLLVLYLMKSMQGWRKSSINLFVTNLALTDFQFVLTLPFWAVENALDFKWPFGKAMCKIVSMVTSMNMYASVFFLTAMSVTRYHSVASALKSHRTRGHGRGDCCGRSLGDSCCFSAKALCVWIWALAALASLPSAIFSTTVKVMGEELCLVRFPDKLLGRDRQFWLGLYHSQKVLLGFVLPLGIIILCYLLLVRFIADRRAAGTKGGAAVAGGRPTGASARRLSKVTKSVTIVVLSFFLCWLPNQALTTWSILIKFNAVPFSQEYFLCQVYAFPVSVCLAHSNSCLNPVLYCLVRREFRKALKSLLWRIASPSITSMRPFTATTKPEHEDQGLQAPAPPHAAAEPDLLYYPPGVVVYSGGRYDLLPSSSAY
Experimental: (§1) FIG. 1 provides a characterization of mutant relaxin-3 peptides as ligands for human GPCR135, GPCR142, and LGR7. The truncated peptides were tested for their GPCR135 and GPCR142 agonist activity using SK-N-MC/CRE-β-gal cells expressing either human GPCR135 (A) or GPCR142 (B). Agonists for GPCR135 or GPCR142 inhibit forskolin induced β-galactosidase (β-gal) expression. The LGR7 agonist activity of the truncated peptides was tested using SK-N-MC/CRE-β-gal cells expressing Gαs-linked human LGR7 (C). Human relaxin-3 was used as positive control in both cases. β-gal expression was measured by colorimetric assay using CPRG as the substrate and reading the absorbance at 570 nm.
(§2) All peptides were tested for their GPCR135, GPCR142, and LGR7 agonist activities in SK-N-MC/CRE cells expressing the relevant receptors as described by Liu et al., 2005b. […] An increase in cAMP concentration in these cells is associated with increased β-gal expression, which can be measured using Chlorophenol Red-β-D-Galactopyranoside (CRGP) as a substrate and reading the optical absorbance at 570 nm. […] The results were analyzed using GraphPad Prism 4.0 software. […] The agonism and antagonism of peptides for rat LGR7 was assayed using a cAMP luminescence assay. […] The cAMP in the cells was measured with a cAMP detection kit (DiscoveRx HitHunter, Cat. #90-0041) according to the manufacturer's protocol. […]

human GPCR142 = human GPCR142 (Homo sapiens, UniProt Q8TDU9); assay: as above; format: cell-based; parameters: expressed in transfected cells; conditions: human GPCR142 agonist response, mean ± SEM; NA = no agonist activity observed
human GPCR142, sequence (Q8TDU9 whole entry): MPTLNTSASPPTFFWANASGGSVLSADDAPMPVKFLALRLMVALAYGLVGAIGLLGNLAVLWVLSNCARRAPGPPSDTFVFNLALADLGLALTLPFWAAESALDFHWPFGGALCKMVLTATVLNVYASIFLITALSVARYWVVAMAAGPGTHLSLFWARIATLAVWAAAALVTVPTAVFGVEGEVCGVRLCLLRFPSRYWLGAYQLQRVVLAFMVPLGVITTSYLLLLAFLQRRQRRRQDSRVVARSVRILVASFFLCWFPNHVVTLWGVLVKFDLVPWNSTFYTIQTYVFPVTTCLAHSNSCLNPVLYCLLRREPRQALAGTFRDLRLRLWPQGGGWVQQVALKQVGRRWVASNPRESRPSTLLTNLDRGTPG
Experimental: as §1, §2

human GPCR135 [2] = biological target: T1, human GPCR135; assay: Antagonism: rightward shift of relaxin-3 dose-response curve, SK-N-MC/CRE-β-gal reporter assay; format: cell-based; parameters: expressed in transfected cells; conditions: pharmacological characterization
Experimental: In a functional assay using SK-N-MC/CRE-β-gal cells expressing human GPCR135 (A), GPCR142 (B) or LGR7 (C), ascending concentrations of relaxin-3 (R3) were used to generate dose response curves either in the absence or presence of 10 nM, 100 nM or 1 μM R3(BΔ23-27)R/I5. For Gαi linked GPCR135 and GPCR142, the assay was performed as inhibition of forskolin-induced β-gal expression. LGR7 is linked to Gαs, therefore addition of forskolin is not necessary. The antagonism of R3(BΔ23-27)R/I5 is indicated by the rightward-shift of the relaxin-3's dose-response curve.
All peptides were tested for their GPCR135, GPCR142, and LGR7 agonist activities in SK-N-MC/CRE cells expressing the relevant receptors as described by Liu et al., 2005b. […] An increase in cAMP concentration in these cells is associated with increased β-gal expression, which can be measured using Chlorophenol Red-β-D-Galactopyranoside (CRGP) as a substrate and reading the optical absorbance at 570 nm. […] The results were analyzed using GraphPad Prism 4.0 software. […] The agonism and antagonism of peptides for rat LGR7 was assayed using a cAMP luminescence assay. […] The cAMP in the cells was measured with a cAMP detection kit (DiscoveRx HitHunter, Cat. #90-0041) according to the manufacturer's protocol. The results were analyzed using GraphPad Prism 4.0 software.

human GPCR135 [3] = biological target: T1, human GPCR135; assay: Radioligand binding assay, 125I-R3/I5 tracer, COS-7 cells expressing GPCR135; parameters: expressed in transfected cells; host or cells: COS-7
Description: COS-7 cells in 24-well tissue culture plates transiently expressing GPCR135, GPCR142 or LGR7 were used in radioligand binding assays as described by Liu et al., 2005a, J. Biol. Chem., 280:292-300. ^125I-Relaxin-3/INSL5 (^125I-R3/I5), a radiolabeled chimeric peptide with the human relaxin-3 B-chain and the human INSL5 A-chain (Liu et al., 2005b), was used at a final concentration of 50 pM as the tracer to characterize the binding properties of all truncated relaxin-3 peptides for GPCR135 and GPCR142. ^125I-relaxin-2 (PerkinElmer Biosciences, Boston) was used at a final concentration of 50 pM to characterize the binding properties of the truncated peptides for the relaxin receptor (LGR7). The results were analyzed by GraphPad Prism 4.0 software (Graphpad, San Diego). The IC50 values, which are the ligand concentrations that inhibited 50% of the maximum specific binding, were then calculated.

With “R3(BΔ23-27)R: Relaxin-3 mutant: B-chain SEQ ID NO:15 (Gly23-Trp27 deleted plus C-terminal Arg), relaxin-3 A-chain SEQ ID NO:13” the EC50 (human GPCR135 [1]) was > 1000 nM, the EC50 (human GPCR142) was > 1000 nM and the “GPCR135 antagonist character” value (human GPCR135 [2]) was “GPCR135 antagonists”. The “affinity of human GPCR135” value (human GPCR135 [3]) was “high affinities”.
